Results as given in US20230042465A1 (Janssen / Centocor, published 2023).

T1: human lymphotoxin (human, UniProt P01374 35-205, limits assumed)
T1 sequence (looked up): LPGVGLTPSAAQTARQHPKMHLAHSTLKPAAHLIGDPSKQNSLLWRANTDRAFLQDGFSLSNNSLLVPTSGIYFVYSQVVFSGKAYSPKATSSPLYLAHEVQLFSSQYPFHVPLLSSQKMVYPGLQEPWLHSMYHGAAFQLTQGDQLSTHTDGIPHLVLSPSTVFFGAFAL


Experiments:
recombinant human TNFα [1] = biological target: T2, recombinant human TNFα (human, UniProt P01375 77-233, 125I-labeled in the receptor binding assay); assay: cell-based or functional assay
recombinant human TNFα [2] = biological target: T2, recombinant human TNFα; assay: competition radioligand assay: mAb in hybridoma supernatant preincubated with 5 ng/ml 125I-TNFα, then 125I-TNFα bound to plate-coated p55-sf2 counted as cpm
Description: The amount of TNFα that bound to the p55 receptor in the presence of the mAbs was determined after washing away the unbound material and counting using a gamma counter. […] Each sample was tested in duplicate. The results shown are representative of two independent experiments.
(§1) 50:l of p55-sf2 at 0.5:g/ml in PBS was added to Optiplates to coat the wells during a one-hour incubation at 37° C. Serial dilutions of the eight TNV cell supernatants were prepared in 96-well round-bottom plates using PBS/0.1% BSA as diluent. […] The mixture was preincubated for one hour at RT. The coated Optiplates were washed to remove unbound p55-sf2 and 50:l of the ¹²⁵I-TNFα/cell supernatant mixture was transferred to the Optiplates. After 2 hrs at RT, Optiplates were washed three times with PBS-Tween. 100:l of Microscint-20 was added and the cpm bound determined using the TopCount gamma counter.
A simple binding assay was done to determine whether the eight TNV mAbs contained in hybridoma cell supernatant were capable of blocking TNFα binding to receptor.

recombinant human TNFα [3] = biological target: T2, recombinant human TNFα; assay: inhibition of 125I-TNFα binding to plate-coated p55-sf2, hybridoma supernatant
Description: as §1
A simple binding assay was done to determine whether the eight TNV mAbs contained in hybridoma cell supernatant were capable of blocking TNFα binding to receptor. The concentrations of the TNV mAbs in their respective cell supernatants were first determined by standard ELISA analysis for human IgG.

human lymphotoxin = biological target: T1, human lymphotoxin; assay: not described

| Binder | neutralizing TNFα bioactivity (recombinant human TNFα [1]) | IC50 (read off the curve) (recombinant human TNFα [2]) | fold better at blocking TNF binding than TNV118 and TNV14 (recombinant human TNFα [3]) | binding result (human lymphotoxin) |
| --- | --- | --- | --- | --- |
| TNV148 (antibody, human IgG1, kappa, V domains shown, also called GenTNV148.26.12; C420A) VH: QVQLVESGGGVVQPGRSLRLSCAASGFIFSSYAMHWVRQAPGNGLEWVAFMSYDGSNKKYADSVKGRFTISRDNPKNTLYLQMNSLRAEDTAVYYCARDRGIAAGGNYYYYGMDVWGQGTTVTVSS VL: EIVLTQSPATLSLSPGERATLSCRASQSVYSYLAWYQQKPGQAPRLLIYDASNRATGIPARFSGSGSGTDFTLTISSLEPEDFAVYYCQQRSNWPPFTFGPGTKVDIKR | 4 fold | ~4 ng/mL | ~4 fold | – |
| TNV86 (antibody, V domains shown, Hybridoma IgG1 kappa; also called GenTNV86.14.34; C417A) VH: QVQLVESGGGVVQPGRSLRLSCAASGFIFSSYAMHWVRQAPGNGLEWVAFMSYDGSNKKYADSVKGRFTISRDNPKNTLYLQMNSLRAEDTAVYYCARDRGIAAGGNYYYYGMDVWGQGTTVTVSS VL: EIVLTQSPATLSLSPGERATLSCRASQSVYSYLAWYQQKPGQAPRLLIYDASNRATGIPARFSGSGSGTDFTLTISSLEPEDFAVYYCQQRSNWPPFTFGPGTKVDIKR | – | – | ~4 fold | – |
| golimumab (SIMPONI) (antibody, human IgG1, kappa, V domains shown, N-glycosylated on asparagine 306, also called rTNV148B) VH: QVQLVESGGGVVQPGRSLRLSCAASGFIFSSYAMHWVRQAPGNGLEWVAFMSYDGSNKKYADSVKGRFTISRDNSKNTLYLQMNSLRAEDTAVYYCARDRGIAAGGNYYYYGMDVWGQGTTVTVSS VL: EIVLTQSPATLSLSPGERATLSCRASQSVYSYLAWYQQKPGQAPRLLIYDASNRATGIPARFSGSGSGTDFTLTISSLEPEDFAVYYCQQRSNWPPFTFGPGTKVDIKR | – | – | – | no binding |
